# Reference: FireProtDB (doi:10.1006/jmbi.2000.3958)
# B1: Cyclin-dependent kinases regulatory subunit, P08463 (parent)
# chain: MSKSGVPRLLTASERERLEPFIDQIHYSPRYADDEYEYRHVMLPKAMLKAIPTDYFNPETGTLRILQEEEWRGLGITQSLGWEMYEVHVPEPHILLFKREKDYQMKFSQQRGG
# Variants of: B1
# Conditions: Schizosaccharomyces pombe (strain 972 / ATCC 24843); pH 7.5; 25 °C; Urea; Fluorescence; Tris 50 mM; structure 1SCE; whole UniProt chain shown
Variant,ddG of mutation (higher = less stable) [kcal/mol],denaturant m value [kcal/mol/M],denaturant midpoint (higher = more stable) [M]
MSKSGVPRLLTASERERLEPFIDQIHYSPRYADDEYEYRHVMLPKAMLKAIPTDYFNPETGTLRILQEEEWRGLGITQSLGWEMYEVHVPEAHILLFKREKDYQMKFSQQRGG [P92A],-0.07,1.78,4.46
MSKSGVPRLLTASERERLEPFIDQIHYSPRYADDEYEYRHVMLPKAMLKAIPTDYFNPETGTLRILQEEEWRGLGITQSLGWEMYEVHVPEGHILLFKREKDYQMKFSQQRGG [P92G],-0.07,1.55,4.46
MSKSGVPRLLTASERERLEPFIDQIHYSPRYADDEYEYRHVMLAKAMLKAIPTDYFNPETGTLRILQEEEWRGLGITQSLGWEMYEVHVPEPHILLFKREKDYQMKFSQQRGG [P44A],3.04,1.56,2.52
MSKSGVARLLTASERERLEPFIDQIHYSPRYADDEYEYRHVMLPKAMLKAIPTDYFNPETGTLRILQEEEWRGLGITQSLGWEMYEVHVPEPHILLFKREKDYQMKFSQQRGG [P7A],0.2,1.57,4.29
MSKSGVPRLLTASERERLEPFIDQIHYSPRYADDEYEYRHVMLPKAMLKAIPTDYFNPETGTLRILQEEEWRGLGITQSLGWEMYEVHGPEPHILLFKREKDYQMKFSQQRGG [V89G],-0.81,1.63,4.93
MSKSGVPRLLTASERERLEPFIDQIHYSPRYADDEYEYRHVMLPKAMLKAIPTDYFNPETGTLRILQEEEWRGLGITQSLGWEMYEVHAPEPHILLFKREKDYQMKFSQQRGG [V89A],0.24,1.6,4.27
MSKSGVPRLLTASERERLEPFIDQIHYSARYADDEYEYRHVMLPKAMLKAIPTDYFNPETGTLRILQEEEWRGLGITQSLGWEMYEVHVPEPHILLFKREKDYQMKFSQQRGG [P29A],-0.23,1.39,4.56
MSKSGVPRLLTASERERLEPFIDQIHYSPRYADDEYEYRHVMLPKAMLKAIATDYFNPETGTLRILQEEEWRGLGITQSLGWEMYEVHVPEPHILLFKREKDYQMKFSQQRGG [P52A],2.57,1.75,2.81
MSKSGVPRLLTASERERLEPFIDQIHYSPRYADDEYEYRHVMLPKAMLKAIPTDYFNPETGTLRILQEEEWRGLGITQSLGWEMYEVHVGEPHILLFKREKDYQMKFSQQRGG [P90G],-1.33,1.53,5.25
MSKSGVPRLLTASERERLEPFIDQIHYSPRYADDEYEYRHVMLPKAMLKAIPTDYFNPETGTLRILQEEEWRGLGITQSLGWEMYEVHVAEAHILLFKREKDYQMKFSQQRGG [P90A P92A],-0.93,1.4,5
MSKSGVPRLLTASERERLEPFIDQIHYSPRYADDEYEYRHVMLPKAMLKAIPTDYFNPETGTLRILQEEEWRGLGITQSLGWEMYEVHVGEGHILLFKREKDYQMKFSQQRGG [P90G P92G],-0.88,1.46,4.97
MSKSGVPRLLTASERERLEAFIDQIHYSPRYADDEYEYRHVMLPKAMLKAIPTDYFNPETGTLRILQEEEWRGLGITQSLGWEMYEVHVPEPHILLFKREKDYQMKFSQQRGG [P20A],0.3,1.5,4.23
MSKSGVPRLLTASERERLEPFIDQIHYAPRYADDEYEYRHVMLPKAMLKAIPTDYFNPETGTLRILQEEEWRGLGITQSLGWEMYEVHVPEPHILLFKREKDYQMKFSQQRGG [S28A],0.34,1.61,4.21
MSKSGVPRLLTASERERLEPFIDQIHYGPRYADDEYEYRHVMLPKAMLKAIPTDYFNPETGTLRILQEEEWRGLGITQSLGWEMYEVHVPEPHILLFKREKDYQMKFSQQRGG [S28G],-0.89,1.62,4.98
